The values that follow come from patent publication US7064181 (Takeda / Millennium, dated 2006).

Assay [1] addresses T1, rat GALR2 (galanin receptor type 2) (rat, UniProt O08726 1-372).
T1 construct: Expressed in CHO/dhfr- cells; The assays used the membrane fraction of these cells; also called rat galanin receptor GALR2
T1 sequence: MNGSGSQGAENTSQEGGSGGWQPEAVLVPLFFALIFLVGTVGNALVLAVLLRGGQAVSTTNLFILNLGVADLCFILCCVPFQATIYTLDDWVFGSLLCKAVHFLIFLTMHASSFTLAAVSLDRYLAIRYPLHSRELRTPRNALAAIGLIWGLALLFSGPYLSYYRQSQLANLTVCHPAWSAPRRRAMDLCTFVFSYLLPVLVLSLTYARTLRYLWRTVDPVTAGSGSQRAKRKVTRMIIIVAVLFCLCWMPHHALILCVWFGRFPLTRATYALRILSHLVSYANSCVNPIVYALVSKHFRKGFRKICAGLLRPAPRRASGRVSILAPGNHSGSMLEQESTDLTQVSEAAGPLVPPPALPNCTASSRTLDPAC
Description: displacement of [125I] rat galanin from GALR2-expressing CHO cell membrane fraction.

Assay [2] has as its target T2, monoclonal antibody GR2-1N.
T2 construct: Mouse monoclonal against the same KLH complex; IgG2b, κ; also called hybridoma strain No. 4
In words: competitive EIA on GR2-1N, competitor HRP-labeled SEQ ID NO:44 peptide.

In the case of APVHRGRGGWTLNSAGYLLGPVLHPPSRAE (also called porcine (1-30)) [porcine ligand peptide (1-30)], in assay [1], the IC50 stood at 1.4 nM.

APVHRGRGGWTLNSAGYLLGPVLHPPSRAEGGGK (also called porcine (1-34)) [porcine ligand peptide (1-34)] yielded an IC50 in assay [1] of 1.4 nM.

B1: porcine ligand peptide (1-60) (peptide)
peptide: APVHRGRGGWTLNSAGYLLGPVLHPPSRAEGGGKGKTALGILDLWKAIDGLPYPQSQLAS
notes: also called porcine (1-60); inventive peptide synthesis product
B1 gave an IC50 in assay [2] of 6 nM.
